This note sets out measurements from the RNAGym collection of RNA variant scans (doi:10.7554/elife.90254).

To fix the notation:
B1: LINE1-mini (parent)
chain: GGCAGAGCUCAACACAGCGUGGCAAAGUGGCUGUGGCUAGACUGCC

In the data set the parent is B1. The data set can be described thus: self-cleavage, relative activity (ratio to wild type); higher = more cleavage; in vitro, sequencing; the parent is a self-cleaving ribozyme.
Regarding A25G G35A, the self-cleavage came to 0.11.

In the case of A25C U38G, the self-cleavage is 0.02.

As to A25C U38A, the self-cleavage amounted to 0.22.

Regarding A25C U38C, the self-cleavage was 0.46.

Regarding A25C C37G, the self-cleavage was determined as 0.06.

For the variant A25C C37A, the self-cleavage came to 0.11.

With A25C C37U, the self-cleavage amounted to 0.06.

For the variant A25U C31U, the self-cleavage was 0.23.

Take A25U C31G: the self-cleavage was 0.1.

Consider A25U C31A, for which the self-cleavage is 0.13.

For A24U A25U, the self-cleavage was 1.48.

Regarding A24U A25G, the self-cleavage turned out to be 1.28.

With A24U A25C, the self-cleavage worked out at 1.63.

With A24G G44A, the self-cleavage worked out at 1.

Regarding A24G G44C, the self-cleavage amounted to 0.66.

For the variant A24G G44U, the self-cleavage stood at 0.15.

With A24G C45A, the self-cleavage was 1.47.

As for A24G C45G, the self-cleavage came out at 0.22.

Regarding A24G C45U, the self-cleavage was 1.23.

As to A25U G40U, the self-cleavage was found to be 0.14.

A25U G40C: the self-cleavage turned out to be 0.09.

A25U G40A: the self-cleavage amounted to 0.18.

As for A24G A25G, the self-cleavage amounted to 0.75.

In the case of A24G A25U, the self-cleavage was 1.3.

In the case of A25U C46A, the self-cleavage amounted to 1.01.

Regarding A25U C46G, the self-cleavage was 0.66.

With A25U C46U, the self-cleavage came out at 1.04.

Take A24U C45G: the self-cleavage was 0.3.

Regarding A24U C45U, the self-cleavage came out at 0.91.

Turning to A24U C45A, the self-cleavage amounted to 0.31.

For A25C C45G, the self-cleavage was determined as 0.11.

For the variant A25C C45A, the self-cleavage was found to be 0.23.

As to A25C C45U, the self-cleavage was found to be 0.49.

Take A24G A41U: the self-cleavage turned out to be 0.67.

A24G A41G: the self-cleavage stood at 0.6.

For A24G A41C, the self-cleavage came to 0.04.

With A24G A26C, the self-cleavage amounted to 1.06.

Consider A24G A26G, for which the self-cleavage amounted to 0.5.

On to A24G A26U, for which the self-cleavage was determined as 1.28.

As to A25U G27U, the self-cleavage was 0.74.

Regarding A25U G27A, the self-cleavage was determined as 0.59.

Consider A25U G27C, for which the self-cleavage is 0.52.

With A24G C37G, the self-cleavage came to 0.1.

Consider A24G C37A, for which the self-cleavage was determined as 0.09.

As to A24G C37U, the self-cleavage came to 0.05.

As for A24U G36U, the self-cleavage stood at 0.05.

For A24U G36A, the self-cleavage came out at 0.22.

For the variant A24U G36C, the self-cleavage was 0.11.

A24G G33A: the self-cleavage came to 0.07.

For A24G G33C, the self-cleavage worked out at 0.06.

As to A24G G33U, the self-cleavage stood at 0.08.

For the variant A24G G40A, the self-cleavage stood at 0.13.

For the variant A24G G40U, the self-cleavage worked out at 0.16.

As for A24G G40C, the self-cleavage came out at 0.18.

Regarding A25U C42G, the self-cleavage was found to be 0.06.

Regarding A25U C42A, the self-cleavage stood at 0.24.

On to A25U C42U, for which the self-cleavage is 0.4.

In the case of A24U U43C, the self-cleavage came to 0.18.

For A24U U43G, the self-cleavage is 0.03.

As to A24U U43A, the self-cleavage stood at 0.3.

Turning to A25G G30A, the self-cleavage is 0.97.

On to A25G G30U, for which the self-cleavage amounted to 0.89.

Take A25G G30C: the self-cleavage was found to be 1.19.

As to A24U A39G, the self-cleavage came to 0.14.

As for A24U A39U, the self-cleavage came out at 1.99.

A24U A39C: the self-cleavage came out at 0.23.

Regarding A25C G29A, the self-cleavage was 0.75.

A25C G29C: the self-cleavage stood at 0.56.

In the case of A25C G29U, the self-cleavage was determined as 1.19.

Take A25C G35C: the self-cleavage was determined as 0.1.

In the case of A25C G35U, the self-cleavage came to 0.12.

On to A25C G35A, for which the self-cleavage was found to be 0.11.

Consider A25C G40U, for which the self-cleavage turned out to be 0.08.

On to A25C G40A, for which the self-cleavage is 0.1.

As for A25C G40C, the self-cleavage came to 0.06.

Regarding A25G G27C, the self-cleavage was determined as 0.16.

As for A25G G27U, the self-cleavage stood at 0.48.

For A25G G27A, the self-cleavage was 0.37.

With A25U G30U, the self-cleavage was found to be 1.75.

A25U G30A: the self-cleavage worked out at 1.17.

In the case of A25U G30C, the self-cleavage turned out to be 0.46.

Turning to A24G U34C, the self-cleavage worked out at 0.1.

For the variant A24G U34A, the self-cleavage was 0.09.

Consider A24G U34G, for which the self-cleavage stood at 0.14.

For A24G U32G, the self-cleavage was found to be 0.14.

For A24G U32A, the self-cleavage came out at 0.14.

On to A24G U32C, for which the self-cleavage worked out at 0.24.

For A25G U32G, the self-cleavage is 0.12.

With A25G U32A, the self-cleavage was 0.11.

Consider A25G U32C, for which the self-cleavage worked out at 0.06.

In the case of A24U U38A, the self-cleavage amounted to 0.34.

For the variant A24U U38C, the self-cleavage came out at 1.36.

Turning to A24U U38G, the self-cleavage amounted to 0.02.

Turning to A24G C46G, the self-cleavage amounted to 0.83.

Consider A24G C46U, for which the self-cleavage was 0.93.

Turning to A24G C46A, the self-cleavage was determined as 1.75.

As to A24U G44A, the self-cleavage worked out at 0.44.

In the case of A24U G44C, the self-cleavage was found to be 0.67.

As to A24U G44U, the self-cleavage was found to be 0.19.

For A25U G44U, the self-cleavage stood at 0.4.

As for A25U G44A, the self-cleavage worked out at 0.28.

Turning to A25U G44C, the self-cleavage came out at 0.29.

Take A25G C46A: the self-cleavage amounted to 0.55.

For A25G C46G, the self-cleavage was 0.78.

As for A25G C46U, the self-cleavage was determined as 0.4.

For the variant A25U C45U, the self-cleavage stood at 2.13.

As to A25U C45G, the self-cleavage was 0.19.

As for A25U C45A, the self-cleavage turned out to be 0.41.

Take A25C U32C: the self-cleavage was 0.25.

As for A25C U32A, the self-cleavage is 0.05.

With A25C U32G, the self-cleavage came to 0.05.

As for A25G G40U, the self-cleavage was 0.07.

For A25G G40A, the self-cleavage is 0.04.

Turning to A25G G40C, the self-cleavage amounted to 0.06.

Consider A24C U32C, for which the self-cleavage worked out at 0.05.

Turning to A24C U32A, the self-cleavage is 0.08.

Consider A24C U32G, for which the self-cleavage was found to be 0.13.

Turning to A25G G33A, the self-cleavage amounted to 0.04.

As for A25G G33C, the self-cleavage came to 0.04.

Take A25G G33U: the self-cleavage is 0.05.

As to A25C G36A, the self-cleavage amounted to 0.21.

For the variant A25C G36U, the self-cleavage was found to be 0.11.

In the case of A25C G36C, the self-cleavage is 0.07.

In the case of A24G G36U, the self-cleavage was determined as 0.1.

For A24G G36C, the self-cleavage is 0.11.

For A24G G36A, the self-cleavage amounted to 0.17.

For the variant A24U A41C, the self-cleavage amounted to 0.07.

On to A24U A41G, for which the self-cleavage worked out at 0.52.

For the variant A24U A41U, the self-cleavage was determined as 0.61.

Regarding A25G U43C, the self-cleavage is 0.1.

For the variant A25G U43A, the self-cleavage was found to be 0.13.

As for A25U G33U, the self-cleavage came out at 0.13.

As for A25U G33C, the self-cleavage turned out to be 0.04.

For A25U G33A, the self-cleavage turned out to be 0.12.

A25C A39C: the self-cleavage turned out to be 0.08.

As for A25C A39G, the self-cleavage came to 0.07.

Turning to A25C A39U, the self-cleavage came to 0.52.

Turning to A24C U28A, the self-cleavage turned out to be 0.6.

As to A24C U28G, the self-cleavage was 0.35.

Take A24C U28C: the self-cleavage is 0.69.

In the case of A25G G29A, the self-cleavage turned out to be 0.32.

In the case of A25G G29C, the self-cleavage worked out at 0.65.

Turning to A25G G29U, the self-cleavage turned out to be 1.14.

With A24G U43A, the self-cleavage was 0.11.

In the case of A24G U43G, the self-cleavage stood at 0.19.

In the case of A24G U43C, the self-cleavage was determined as 0.2.

For the variant A25U C37A, the self-cleavage was 0.06.

On to A25U C37G, for which the self-cleavage is 0.02.

As to A25U C37U, the self-cleavage was 0.03.

Consider A25G G36A, for which the self-cleavage stood at 0.15.

In the case of A25G G36C, the self-cleavage was 0.04.

With A25G G36U, the self-cleavage came to 0.05.

For A25C C31A, the self-cleavage was 0.09.

As for A25C C31U, the self-cleavage was found to be 0.12.

For the variant A25C C31G, the self-cleavage stood at 0.06.

Turning to A25U A26U, the self-cleavage was found to be 1.23.

With A25U A26C, the self-cleavage amounted to 1.79.

For A25U A26G, the self-cleavage was determined as 0.71.

For A24U G29A, the self-cleavage is 1.72.

A24U G29U: the self-cleavage was determined as 1.84.

A24U G29C: the self-cleavage was 0.58.

In the case of A24U G30A, the self-cleavage came to 0.97.

A24U G30C: the self-cleavage amounted to 0.62.

Take A24U G30U: the self-cleavage was 1.46.

On to A25G A26G, for which the self-cleavage amounted to 0.34.

A25G A26C: the self-cleavage is 0.49.

With A25G A26U, the self-cleavage is 0.1.
